Measured values taken from paper PMC8007570.

B1: FAM 40-mer dsDNA (dsDNA)
DNA 1: GTGTTCGGACTCTGCCTCAAGACGGTAGTCAACGTGCTTG
DNA 2: CAAGCACGTTGACTACCGTCTTGAGGCAGAGTCCGAACAC

Columns and labels:
Pf MRNBD Y199C = Pf MRNBD Y199C (Pyrococcus furiosus, UniProt Q8U1N9;P58301 1-426;1-195+709-882, Y199C;internal_change); assay: fluorescence polarization; 1 mM MnCl2, 0.1 mM EDTA, no ATP/Mg2+; FP: 25 nM DNA, 50 mM HEPES, 100 mM NaCl, 1 mM MnCl2, 0.1 mM EDTA, 1% glycerol, 1 mM TCEP, 0.1% PEG-6000, pH 7, 15 min room temperature; NMR at 50 C
[1] = molecular target: Pf MRNBD wild type (Mre11 + Rad50 NBD) (Pyrococcus furiosus, UniProt Q8U1N9;P58301 1-426;1-195+709-882, internal_change); assay: as above

| Binder | Kd (Pf MRNBD Y199C) | Kd [1] |
| --- | --- | --- |
| B1 | 2.5 µM | 2 µM |
| GTGTTCGGACTCTGCCTCAAGACGGTAGTCAACGTGCTTG (ssDNA) [FAM 40-mer ssDNA] | 0.35 µM | 0.31 µM |
